PMC2778552

Molecular target: T1, human recombinant aromatase (human) (UniProt P11511)
T1 sequence: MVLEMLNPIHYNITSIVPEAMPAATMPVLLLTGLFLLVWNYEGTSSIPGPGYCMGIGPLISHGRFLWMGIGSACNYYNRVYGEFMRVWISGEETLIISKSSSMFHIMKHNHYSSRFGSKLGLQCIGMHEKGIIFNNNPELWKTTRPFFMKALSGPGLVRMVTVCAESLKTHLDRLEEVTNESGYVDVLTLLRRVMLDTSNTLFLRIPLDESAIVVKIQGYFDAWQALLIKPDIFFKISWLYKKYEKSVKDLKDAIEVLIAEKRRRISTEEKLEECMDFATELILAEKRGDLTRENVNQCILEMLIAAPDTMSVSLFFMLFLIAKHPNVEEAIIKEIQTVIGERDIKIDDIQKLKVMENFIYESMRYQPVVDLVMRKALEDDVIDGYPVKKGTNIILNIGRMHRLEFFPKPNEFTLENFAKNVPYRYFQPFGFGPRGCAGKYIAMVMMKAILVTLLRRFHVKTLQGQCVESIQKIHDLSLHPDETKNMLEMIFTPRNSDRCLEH

B1: NADPH-cytochrome P450 reductase (enzyme)
chain: MGDSHEDTSATMPEAVAEEVSLFSTTDMVLFSLIVGVLTYWFIFRKKKEEIPEFSKIQTTAPPVKESSFVEKMKKTGRNIIVFYGSQTGTAEEFANRLSKDAHRYGMRGMSADPEEYDLADLSSLPEIDKSLVVFCMATYGEGDPTDNAQDFYDWLQETDVDLTGVKFAVFGLGNKTYEHFNAMGKYVDQRLEQLGAQRIFELGLGDDDGNLEEDFITWREQFWPAVCEFFGVEATGEESSIRQYELVVHEDMDVAKVYTGEMGRLKSYENQKPPFDAKNPFLAAVTANRKLNQGTERHLMHLELDISDSKIRYESGDHVAVYPANDSALVNQIGEILGADLDVIMSLNNLDEESNKKHPFPCPTTYRTALTYYLDITNPPRTNVLYELAQYASEPSEQEHLHKMASSSGEGKELYLSWVVEARRHILAILQDYPSLRPPIDHLCELLPRLQARYYSIASSSKVHPNSVHICAVAVEYEAKSGRVNKGVATSWLRAKEPAGENGGRALVPMFVRKSQFRLPFKSTTPVIMVGPGTGIAPFMGFIQERAWLREQGKEVGETLLYYGCRRSDEDYLYREELARFHKDGALTQLNVAFSREQAHKVYVQHLLKRDREHLWKLIHEGGAHIYVCGDARNMAKDVQNTFYDIVAEFGPMEHTQAVDYVKKLMTKGRYSLDVWS
Which Km of aromatase for reductase from Lineweaver–Burk plots; tritiated water release from [1β-3H(N)]-androstenedione, 50 nM pure aromatase, reductase 1 nM to 20 nM, androstenedione 10 nM to 500 nM, 37°C does the source give for B1 here?
The Km of aromatase for reductase from Lineweaver–Burk plots; tritiated water release from [1β-3H(N)]-androstenedione, 50 nM pure aromatase, reductase 1 nM to 20 nM, androstenedione 10 nM to 500 nM, 37°C was 1 nM.
